EC50 data for one substance are collected here from EP1441764B1.

pEC50: −log10 of the molar value.

The assay concerns the target C-RANKL protein (mouse RANKL fragment with N-terminal cysteine-containing linker GPGCGGG and hexahistidine tag) (mouse) (UniProt O35235). Description: ELISA on plates coated with C-RANKL 10 ug/ml, serial dilutions of RANK-Fc, anti-Fc-HRP detection.
Sequence of UniProt O35235 (O35235 other isoform, or with tags, fused parts or gaps limits assumed, form in doubt): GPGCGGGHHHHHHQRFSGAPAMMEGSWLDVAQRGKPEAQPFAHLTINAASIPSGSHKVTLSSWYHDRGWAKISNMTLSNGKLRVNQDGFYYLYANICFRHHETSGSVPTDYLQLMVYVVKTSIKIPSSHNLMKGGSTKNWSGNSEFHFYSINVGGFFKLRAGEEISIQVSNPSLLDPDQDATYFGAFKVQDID

As for purified RANK-Fc fusion protein, the pEC50 was 8.52 to 9.00.
